Tests used:
[1] = target: T1, DNA polymerase lambda catalytic domain with brooch motif (DSB.B crystals) (Homo sapiens, UniProt Q9UGP5 233-575); experiment: X-ray crystallography, 2.25 A; dUMPNPP, Mg2+ (metal B), Na+ in HhH2 site; Crystals only: DNA with protein on ice or RT, then 0.91 mM dUMPNPP; SSB cacodylate pH 6.5/KCl/Mg acetate/PEG 8000 RT; DSB.A tripotassium citrate/PEG 3350 4 C; DSB.B Na sulfate/PEG 3350 RT; DSB.C cacodylate pH 6.5/ammonium sulfate/PEG 8K 4 C; DSB.D cacodylate pH 6.5/Ca acetate/PEG 8K 4 C, soaked in Mg acetate; details: protein: recombinant; tags: GST tag removed by TEV; single-stranded upstream primer plus duplex CGGCAGC:GCCG (3' overhang 3 nt); 2-nt microhomology; primer 5' end mispairs with same primer of neighbouring complex
T1 sequence: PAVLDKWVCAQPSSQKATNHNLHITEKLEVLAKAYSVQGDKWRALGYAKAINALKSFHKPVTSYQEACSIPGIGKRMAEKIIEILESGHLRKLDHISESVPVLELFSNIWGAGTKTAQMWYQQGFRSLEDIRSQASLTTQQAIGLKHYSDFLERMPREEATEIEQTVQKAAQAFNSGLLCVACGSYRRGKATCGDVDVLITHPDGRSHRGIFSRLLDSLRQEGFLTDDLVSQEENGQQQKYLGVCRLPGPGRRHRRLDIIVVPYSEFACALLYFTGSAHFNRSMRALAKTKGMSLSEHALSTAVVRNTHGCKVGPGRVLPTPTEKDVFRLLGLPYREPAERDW

[2] = target: T2, DNA polymerase lambda catalytic domain with brooch motif (Homo sapiens, UniProt Q9UGP5 235-575); experiment: X-ray crystallography, 2 A; dUMPNPP, Mg2+; Crystals only: DNA with protein on ice or RT, then 0.91 mM dUMPNPP; SSB cacodylate pH 6.5/KCl/Mg acetate/PEG 8000 RT; DSB.A tripotassium citrate/PEG 3350 4 C; DSB.B Na sulfate/PEG 3350 RT; DSB.C cacodylate pH 6.5/ammonium sulfate/PEG 8K 4 C; DSB.D cacodylate pH 6.5/Ca acetate/PEG 8K 4 C, soaked in Mg acetate; details: protein: recombinant; tags: GST tag removed by TEV; two duplexes: TACTG:CAGTGC (G:T mismatch at -2, 3' overhang 1 nt) and CGGCAG:GCCG (3' overhang 2 nt); 1-nt microhomology
T2 sequence: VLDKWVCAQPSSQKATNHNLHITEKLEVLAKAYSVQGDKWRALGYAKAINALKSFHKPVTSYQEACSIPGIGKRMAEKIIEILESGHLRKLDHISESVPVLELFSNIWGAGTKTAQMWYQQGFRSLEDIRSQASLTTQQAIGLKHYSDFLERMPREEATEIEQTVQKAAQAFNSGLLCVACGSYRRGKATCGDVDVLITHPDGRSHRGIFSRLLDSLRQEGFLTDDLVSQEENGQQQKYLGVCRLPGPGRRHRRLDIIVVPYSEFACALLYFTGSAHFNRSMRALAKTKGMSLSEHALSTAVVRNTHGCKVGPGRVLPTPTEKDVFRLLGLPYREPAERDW

[3] = target: T2, DNA polymerase lambda catalytic domain …; experiment: X-ray crystallography, 1.57 A; dUMPNPP, Mg2+; Crystals only: DNA with protein on ice or RT, then 0.91 mM dUMPNPP; SSB cacodylate pH 6.5/KCl/Mg acetate/PEG 8000 RT; DSB.A tripotassium citrate/PEG 3350 4 C; DSB.B Na sulfate/PEG 3350 RT; DSB.C cacodylate pH 6.5/ammonium sulfate/PEG 8K 4 C; DSB.D cacodylate pH 6.5/Ca acetate/PEG 8K 4 C, soaked in Mg acetate; details: protein: recombinant; tags: GST tag removed by TEV; 1-nt gap; template with upstream primer and downstream primer
[4] = target: T2, DNA polymerase lambda catalytic domain …; experiment: X-ray crystallography, 1.8 A; dUMPNPP, Na+ (metal A), Mg2+ (metal B); Crystals only: DNA with protein on ice or RT, then 0.91 mM dUMPNPP; SSB cacodylate pH 6.5/KCl/Mg acetate/PEG 8000 RT; DSB.A tripotassium citrate/PEG 3350 4 C; DSB.B Na sulfate/PEG 3350 RT; DSB.C cacodylate pH 6.5/ammonium sulfate/PEG 8K 4 C; DSB.D cacodylate pH 6.5/Ca acetate/PEG 8K 4 C, soaked in Mg acetate; details: protein: recombinant; tags: GST tag removed by TEV; two duplexes: ACTG:CAGTGC (3' overhang 2 nt) and CGGCAGC:GCCG (3' overhang 3 nt); 2-nt microhomology, 1-nt gap
[5] = target: T2, DNA polymerase lambda catalytic domain …; experiment: X-ray crystallography, 1.65 A; dUMPNPP, Ca2+/Mg2+ (metal A), Mg2+ (metal B); pre-catalytic; Crystals only: DNA with protein on ice or RT, then 0.91 mM dUMPNPP; SSB cacodylate pH 6.5/KCl/Mg acetate/PEG 8000 RT; DSB.A tripotassium citrate/PEG 3350 4 C; DSB.B Na sulfate/PEG 3350 RT; DSB.C cacodylate pH 6.5/ammonium sulfate/PEG 8K 4 C; DSB.D cacodylate pH 6.5/Ca acetate/PEG 8K 4 C, soaked in Mg acetate; details: protein: recombinant; tags: GST tag removed by TEV; two duplexes: blunt GCACTG:CAGTGC and CGGCA:GCCG (3' overhang 1 nt); no microhomology

B1: DSB.B without upstream template (mixed)
DNA: CAGTGC
? 1: CGGCAGC
? 2: GCCG
modifications: 5'-phosphate on GCCG
[1]
  binding result: binds

B2: DSB.C mismatched (dsDNA)
DNA 1: TACTG
DNA 2: CAGTGC
DNA 3: CGGCAG
DNA 4: GCCG
modifications: 5'-phosphate on GCCG
[2]
  binding result: binds

B3: 1nt-gapped SSB (dsDNA)
DNA 1: CGGCAGTACTG
DNA 2: CAGTAC
DNA 3: GCCG
modifications: 5'-phosphate on GCCG
[3]
  binding result: binds

B4: DSB.A complementary (dsDNA)
DNA 1: ACTG
DNA 2: CAGTGC
DNA 3: CGGCAGC
DNA 4: GCCG
modifications: 5'-phosphate on GCCG
[4]
  binding result: binds

B5: DSB.D blunt-ended (dsDNA)
DNA 1: GCACTG
DNA 2: CAGTGC
DNA 3: CGGCA
DNA 4: GCCG
modifications: 5'-phosphate on GCCG
[5]
  binding result: binds

— paper PMC9249759, “Analysis of diverse double-strand break synapsis with Polλ reveals basis for unique substrate specificity in nonhomologous end-joining”
